This passage reports koff results from paper PMC8646600 (2021).

Assay [1] concerns the target SARS-CoV-2 spike RBD (S-RBD), hFc tag removed by thrombin digestion, biotinylated (SARS-CoV-2, UniProt P0DTC2 319-541). Briefly: BLI.
Assay [2] concerns the target SARS-CoV-2 RBD titrated over immobilised Fabs (construct not stated) (SARS-CoV-2, UniProt P0DTC2 319-541). The experiment in a line: BLI.

B1: S-E6 full-length human IgG4e1(S228P) antibody (antibody, V domains shown)
VH: QVTLRESGPGLVKPSETLSLTCAVSGGSLSSVNYYWSWIRQHPGKGLEWIGYIYYSGSTNYNPSLKSRVTMSLDTSKNQFSLKLSSVTAADTAVYYCATPGAIMGALHIWGQGTLVTVSS
VL: QAVLTQPSSASSTPGQRVIISCSGSSSNIGSNTVSWYQQVPGAAPKLLIYFDYRRPSGVPDRFSGTRSGTSASLGISGLQSEDEADYYCAAWDDSLSAWVFGRGTKLTVL
For the molecule B1, the koff in assay [1] worked out at 0.000865 s⁻¹.

B2: S-E6 Fab (Fab, V domains shown)
VH: QVTLRESGPGLVKPSETLSLTCAVSGGSLSSVNYYWSWIRQHPGKGLEWIGYIYYSGSTNYNPSLKSRVTMSLDTSKNQFSLKLSSVTAADTAVYYCATPGAIMGALHIWGQGTLVTVSS
VL: QAVLTQPSSASSTPGQRVIISCSGSSSNIGSNTVSWYQQVPGAAPKLLIYFDYRRPSGVPDRFSGTRSGTSASLGISGLQSEDEADYYCAAWDDSLSAWVFGRGTKLTVL
Molecule B2 returned an off-rate constant (koff) in assay [2] of 0.00196 s⁻¹.

B3: S-B8 Fab (Fab, V domains shown)
VH: QVQLVQSGGGLIQPGGSLRLSCAASGFTVSLSHMNWVRQAPGKGLEWVSITYGDGNSDYADSVKGRFTISRDNSKNTLYLQMNSLRAEDTAVYYCAREYYYGMDVWGQGTTVTVSS
VL: not shown
On to B3, for which, in assay [2], the koff came to 0.0027 s⁻¹.

B4: S-B8 full-length human IgG4e1(S228P) antibody (antibody, V domains shown)
VH: QVQLVQSGGGLIQPGGSLRLSCAASGFTVSLSHMNWVRQAPGKGLEWVSITYGDGNSDYADSVKGRFTISRDNSKNTLYLQMNSLRAEDTAVYYCAREYYYGMDVWGQGTTVTVSS
VL: not shown
In turn, B4 returned a koff in assay [1] of 0.00267 s⁻¹.
